{
  "source": "paper PMC7243059",
  "about": "(ACS nano, 2019)",
  "key": {"[1]": {"molecular_target": "the molecule itself", "assay": "SAXS"}, "[2]": {"molecular_target": "the molecule itself", "assay": "SAXS", "remark": "listed apart in the source"}},
  "note": "“And” between values parts separate entries of the source, which are not always exact repeats. Identical values can stand only once. Like-named read-outs stand apart in the source and are kept apart here.",
  "data": [
    {"protein": "Hepatitis B virus capsid protein assembly domain (cp149) dimer (domain or fragment) MDIDPYKEFGATVELLSFLPSDFFPSVRDLLDTAAALYRDALESPEHCSPHHTALRQAILCWGDLMTLATWVGTNLEDPASRDLVVSYVNTNVGLKFRQLLWFHISCLTFGRETVLEYLVSFGVWIRTPPAYRPPNAPILSTLPETTVV", "values": [
      {"measurement": "stoichiometry N", "setting": "[1]", "result": 2},
      {"measurement": "stoichiometry N", "setting": "[2]", "result": "240 monomers and 180 monomers"}
    ]}
  ]
}
